The target of assay [1] is T1, N-terminal FLAG-tagged cynomolgus monkey ROBO4, cynoROBO4-1 (pCI-FLAG-cynoROBO4-1) (cynomolgus monkey, UniProt Q8WZ75 28-1007 (human entry)).
T1 chain: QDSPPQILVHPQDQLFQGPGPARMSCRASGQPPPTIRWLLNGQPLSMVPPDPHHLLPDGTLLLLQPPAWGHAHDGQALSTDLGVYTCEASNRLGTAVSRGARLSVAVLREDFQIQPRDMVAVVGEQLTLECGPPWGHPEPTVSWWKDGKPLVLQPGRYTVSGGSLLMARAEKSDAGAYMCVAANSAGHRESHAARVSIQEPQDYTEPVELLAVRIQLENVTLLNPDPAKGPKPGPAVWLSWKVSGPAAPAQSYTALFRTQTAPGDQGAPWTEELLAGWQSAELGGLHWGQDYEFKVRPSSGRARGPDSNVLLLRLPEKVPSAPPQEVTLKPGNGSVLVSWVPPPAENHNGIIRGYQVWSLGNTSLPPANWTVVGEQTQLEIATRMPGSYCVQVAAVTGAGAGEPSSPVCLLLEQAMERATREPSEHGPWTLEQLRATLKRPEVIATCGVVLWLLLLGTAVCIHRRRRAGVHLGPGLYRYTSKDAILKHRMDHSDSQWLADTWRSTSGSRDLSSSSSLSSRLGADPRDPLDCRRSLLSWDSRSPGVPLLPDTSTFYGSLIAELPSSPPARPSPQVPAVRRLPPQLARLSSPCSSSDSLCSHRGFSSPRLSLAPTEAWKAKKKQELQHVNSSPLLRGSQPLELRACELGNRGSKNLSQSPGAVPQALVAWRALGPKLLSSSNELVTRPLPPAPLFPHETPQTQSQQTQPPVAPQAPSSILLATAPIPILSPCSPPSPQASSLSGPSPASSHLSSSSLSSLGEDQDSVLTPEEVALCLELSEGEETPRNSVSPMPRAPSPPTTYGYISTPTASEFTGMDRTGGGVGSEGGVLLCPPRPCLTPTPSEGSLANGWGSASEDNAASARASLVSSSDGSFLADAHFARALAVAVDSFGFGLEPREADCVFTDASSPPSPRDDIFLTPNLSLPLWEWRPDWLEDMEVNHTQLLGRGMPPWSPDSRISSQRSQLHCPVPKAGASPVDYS
Description: flow cytometry (FC500), HEK293 cells transfected with pCI-FLAG-cynoROBO4-1, antibody at 10 µg/mL, FITC goat anti-human IgG Fc; control histogram IgG (human IgG).

Assay [2] deals with T2, rat ROBO4 (pCI-raROBO4-transfected HEK293 cells) (rat, UniProt Q80W87 38-949 at identity 0.93)).
T2 chain: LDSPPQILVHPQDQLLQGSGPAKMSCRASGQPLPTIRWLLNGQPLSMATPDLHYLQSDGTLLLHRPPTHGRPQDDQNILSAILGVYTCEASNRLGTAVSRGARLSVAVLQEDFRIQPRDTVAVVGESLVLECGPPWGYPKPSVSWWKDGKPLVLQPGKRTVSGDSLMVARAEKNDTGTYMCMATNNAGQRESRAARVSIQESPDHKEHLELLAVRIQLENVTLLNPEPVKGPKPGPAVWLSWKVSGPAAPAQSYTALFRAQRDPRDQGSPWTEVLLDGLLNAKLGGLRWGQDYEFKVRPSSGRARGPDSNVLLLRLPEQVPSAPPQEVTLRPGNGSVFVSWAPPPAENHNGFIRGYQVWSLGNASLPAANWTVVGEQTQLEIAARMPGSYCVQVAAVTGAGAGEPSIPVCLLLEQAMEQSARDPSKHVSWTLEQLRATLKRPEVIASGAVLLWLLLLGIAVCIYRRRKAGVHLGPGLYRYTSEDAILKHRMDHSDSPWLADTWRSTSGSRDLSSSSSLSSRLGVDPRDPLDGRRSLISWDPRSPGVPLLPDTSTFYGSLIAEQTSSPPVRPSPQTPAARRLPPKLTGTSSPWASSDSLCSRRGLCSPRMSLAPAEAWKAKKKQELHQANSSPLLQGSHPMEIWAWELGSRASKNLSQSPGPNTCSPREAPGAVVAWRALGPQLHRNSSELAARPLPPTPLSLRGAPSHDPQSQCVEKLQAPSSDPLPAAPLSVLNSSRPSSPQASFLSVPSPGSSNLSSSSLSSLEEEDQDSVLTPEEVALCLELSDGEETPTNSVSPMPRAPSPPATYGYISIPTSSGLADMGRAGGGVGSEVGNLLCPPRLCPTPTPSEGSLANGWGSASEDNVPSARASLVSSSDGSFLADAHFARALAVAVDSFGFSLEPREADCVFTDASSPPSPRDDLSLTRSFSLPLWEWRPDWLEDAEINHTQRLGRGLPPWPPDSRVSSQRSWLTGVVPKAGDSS
Description: flow cytometry, HEK293 cells transfected with pCI-raROBO4, anti-mouse IgG FITC; control histogram IgG (Mouse IgG2a). The method, then: HEK293 cells were inoculated at a concentration of 1.5×10⁶ cells/dish to a 60-mm dish (manufactured by Corning Inc.) and cultured overnight in a DMEM medium containing 10% FBS at 37° C. under 5% CO₂ conditions. On the next day, the HEK293 cells were transfected with pCI-hROBO4, pCI-mROBO4, pCI-raROBO4, pCI-FLAG-cynoROBO4-1, pCI-FLAG-cynoROBO4-2, pCI-hROBO1, pCI-hROBO2, or pCI-hROBO3 using FuGENE6 Transfection Reagent and further cultured overnight at 37° C. under 5% CO₂ conditions. On the next day, the expression vector-transfected cells were treated with TrypLE Express (manufactured by Life Technologies Corp.), washed with PBS containing 5% FBS, and then suspended in PBS containing 5% FBS. The obtained cell suspension was used in flow cytometry analysis.
Each cell suspension prepared in 4)-3-1 was centrifuged, and the supernatant was removed. Then, MAb1 or a negative control Mouse IgG2a was added at a concentration of 10 μg/mL to 2×10⁵ expression vector-transfected cells, and the resulting suspension was left standing at 4° C. for 1 hour. […] Data was analyzed using Flowjo. The histogram of FITC fluorescence intensity was prepared. The antibody was determined to bind in a cross-species manner when the histogram of MAb1 was shifted to a stronger fluorescence intensity region compared with the histogram of the negative control Mouse IgG2a.
On the technique in general: Flow cytometry measures light scatter and fluorescence of single cells or particles in a stream.

B1: humanized MAb1 antibody H-2140 (antibody, human IgG2, kappa, V domains shown)
VH: EVQLVESGGGLVQPGGSLRLSCAASGFTFSTYAMSWVRQAPGKRLEWVATISQGGTYTYYPDSVKGRFTISRDNAKNTLYLQMNSLRAEDTAVYYCARLIYYDYLDYWGQGTLVTVSS
VL: DIVMTQSPLSLPVTLGEPASISCRSSQSLENSNGNTYLNWYLQKPGQSPQLLIYRVSNRFSGVPDRFSGSGSGTDFTLKISRVEAEDVGVYYCLQVTHVPWTFGPGTKVDIKR
notes: Human IgG2 / kappa constant regions; also called hMAb1-H4-type heavy chain + hMAb1-L1-type light chain
On to B1, for which the binding result in assay [1] was “binds”.

B2: anti-ROBO4 mouse monoclonal antibody MAb1 (antibody, mouse IgG1, V domains shown)
VH: EVQLVESGGGLVKPGGSLKLSCAASGFTFSTYAMSWVRQTPEKRLEWVATISNGGTYTYYPDSVKGRFTISRDNAENTLYLQMSSLRSEDTAMYFCARLIYYDYLDYWGHGTTLTVSS
VL: DAVMTQTPLSLPVSLGDQASISCRSSQSLENSNGNTYLNWYFQKPGQSPQLLIYRVSNRFSGVLDRFSGSGSGTDFTLKISRVEAEDFGVYFCLQVTHVPWTFGGGTKLEIKR
notes: Mouse IgG1 (gamma1), kappa light chain, purified from hybridoma supernatant; also called parent antibody MAb1
As for B2, in assay [2], the binding result is listed as “no binding (tested: 10 µg/mL)”.

Source of the values: patent US20150098945A1 (Daiichi Sankyo, published 2015).
